Paper PMC9342783

How the values were obtained:
[1] = molecular target: membrane translocated mature FopA (Francisella tularensis outer membrane protein A) with C-terminal octa-histidine tag (F. tularensis subsp. tularensis strain SCHU S4); experiment: native gel or EMSA
[2] = molecular target: membrane translocated mature FopA (Francisella tularensis outer membrane protein A) with C-terminal octa-histidine tag (F. tularensis subsp. tularensis strain SCHU S4); experiment: small angle X-ray scattering (SEC-SAXS)

“membrane translocated mature FopA (Francisella tularensis outer membrane protein A) with C-terminal octa-histidine tag (natural protein)” gave a stoichiometry N [1] of 2 and a stoichiometry N [2] of 2.
